Results taken from patent US20210206856A1 (PANDION OPERATIONS, published 2021).
Positions count from the first letter of the chain named.

T1: recombinant mouse MAdCAM-1 (mouse, UniProt Q61826 22-365, limits assumed)
T1 construct: also called mMAdCAM-1; mouse MAdCAM-Fc
T1 sequence (looked up): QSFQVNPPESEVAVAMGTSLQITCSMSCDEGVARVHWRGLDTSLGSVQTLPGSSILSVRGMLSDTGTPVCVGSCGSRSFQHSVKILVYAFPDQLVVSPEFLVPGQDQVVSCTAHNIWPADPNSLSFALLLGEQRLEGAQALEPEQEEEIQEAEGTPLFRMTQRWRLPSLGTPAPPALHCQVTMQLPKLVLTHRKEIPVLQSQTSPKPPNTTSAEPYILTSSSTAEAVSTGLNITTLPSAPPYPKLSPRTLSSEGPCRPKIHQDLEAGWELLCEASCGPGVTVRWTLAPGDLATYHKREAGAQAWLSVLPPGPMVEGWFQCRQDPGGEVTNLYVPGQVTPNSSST

T2: human MAdCAM expressed on cells (human, UniProt Q13477 19-382)
T2 construct: whole, on cells; also called MADCAM1
T2 sequence (looked up): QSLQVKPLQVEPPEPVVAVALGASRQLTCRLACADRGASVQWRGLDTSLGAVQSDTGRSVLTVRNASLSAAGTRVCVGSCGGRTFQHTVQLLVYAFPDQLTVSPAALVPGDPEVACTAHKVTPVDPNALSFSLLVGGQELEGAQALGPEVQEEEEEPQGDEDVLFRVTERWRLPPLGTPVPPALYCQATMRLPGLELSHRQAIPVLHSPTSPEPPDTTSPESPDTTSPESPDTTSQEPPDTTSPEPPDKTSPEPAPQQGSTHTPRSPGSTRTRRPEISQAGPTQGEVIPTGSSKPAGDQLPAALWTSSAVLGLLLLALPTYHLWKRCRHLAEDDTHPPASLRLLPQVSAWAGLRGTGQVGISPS

T3: mouse MAdCAM expressed on cells (mouse, UniProt Q61826 22-405)
T3 construct: whole, on cells
T3 sequence (looked up): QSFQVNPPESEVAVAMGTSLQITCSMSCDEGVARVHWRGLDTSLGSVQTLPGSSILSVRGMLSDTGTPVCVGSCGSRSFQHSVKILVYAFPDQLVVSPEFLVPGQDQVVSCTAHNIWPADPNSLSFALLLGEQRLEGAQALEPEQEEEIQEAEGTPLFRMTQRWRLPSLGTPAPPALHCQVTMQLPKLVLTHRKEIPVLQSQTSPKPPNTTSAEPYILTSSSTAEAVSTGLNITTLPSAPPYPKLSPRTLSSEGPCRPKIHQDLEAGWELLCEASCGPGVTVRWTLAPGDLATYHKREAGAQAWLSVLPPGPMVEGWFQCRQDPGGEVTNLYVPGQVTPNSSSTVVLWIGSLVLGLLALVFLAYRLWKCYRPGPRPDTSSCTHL

B1: MAdCAM Antibody Table 2 Clone 20 (antibody, human IgG1, V domains shown)
VH: EVQLLESGGGLVQPGGSLRLSCAASGFTFSDSAMHWVRQAPGKGLEWVSAISGSGSTIYYADSVKGRFTISRDNSKNTLYLQMNSLRAEDTAVYYCVSDIAVAGHWYFDLWGRGTLVTVSS
VL: DIQMTQSPSSLSASVGDRVTITCRASQSISTFLNWYQQKPGKAPKLLIYAASRLEGGVPSRFSGSGSGTDFTLTISSLQPEDFATYYCQQANSFPLTFGPGTKVDIK
B2: MAdCAM Antibody Table 2 Clone 23 (antibody, human IgG1, V domains shown)
VH: EVQLLESGGGLVQPGGSLRLSCAASGFTFDDYAMHWVRQAPGKGLEWVSYIDTSSSHLYYADSVKGRFTISRDNSKNTLYLQMNSLRAEDTAVYYCARDEAAAGYYGMDVWGQGTTVTVSS
VL: DIQMTQSPSSLSASVGDRVTITCQAGQDISNYLNWYQQKPGKAPKLLIYDASNLETGVPSRFSGSGSGTDFTLTISSLQPEDFATYYCQQTYSTPITFGQGTKLEIK
B3: MAdCAM Antibody Table 2 Clone 17 (antibody, human IgG1, V domains shown)
VH: QVQLVQSGAEVKKPGSSVKVSCKASGYTFTDYHIHWVRQAPGQGLEWMGGIVPRSGSTTYAQKFQGRVTITADESTSTAYMELSSLRSEDTAVYYCAKDESSGWYYFDYWGQGTLVTVSS
VL: DIVMTQSPLSLPVTPGEPASISCRSSQSLLHSNGYNYLDWYLQKPGQSPQLLIYSAYNRASGVPDRFSGSGSGTDFTLKISRVEAEDVGVYYCMQALQTPLTFGQGTKVEIK
B4: MAdCAM Antibody Table 2 Clone 14 (antibody, human IgG1, V domains shown)
VH: QVQLVQSGAEVKKPGSSVKVSCKASGYTFTNYYMHWVRQAPGQGLEWMGGIIPIVDGVKYAQKFQGRVTITADESTSTAYMELSSLRSEDTAVYYCAKGQFTGNYYYGMDYWGQGTLVTVSS
VL: DIQMTQSPSSLSASVGDRVTITCQANQDISNYLNWYQQKPGKAPKLLIYRASKLEAGVPSRFSGSGSGTDFTLTISSLQPEDFATYYCQQSSEIPYSFGQGTKVEIK
B5: MAdCAM Antibody Table 2 Clone 22 (antibody, human IgG1, V domains shown)
VH: EVQLLESGGGLVQPGGSLRLSCAASGFTFDDYAMHWVRQAPGKGLEWVSGISWNSGSIGYADSVKGRFTISRDNSKNTLYLQMNSLRAEDTAVYYCAKDIVAAGHYYYGMDVWGQGTTVTVSS
VL: B2 VL with G26S, T91S, I96L, Q100G, L104V
B6: MAdCAM Antibody Table 2 Clone 6 (antibody, human IgG1, V domains shown)
VH: EVQLLESGGGLVQPGGSLRLSCAASGFTFNNYAFHWVRQAPGKGLEWVSRINSYGTSTTYADSVKGRFTISRDNSKNTLYLQMNSLRAEDTAVYYCAREGPVAGYWYFDLWGQGTLVTVSS
VL: DIQMTQSPSSLSASVGDRVTITCRASQIIGTNLAWYQQKPGKAPKLLIYGASSLQSGVPSRFSGSGSGTDFTLTISSLQPEDFATYYCQQSYRLPFTFGQGTKVEIK
B7: MAdCAM Antibody Table 2 Clone 24 (antibody, human IgG1, V domains shown)
VH: EVQLVESGGGLVKPGGSLRLSCAASGFTFSSYWMSWVRQAPGKGLEWVSRISSDGRITTYAAPVKGRFTISRDDSKNTLYLQMNSLKTEDTAVYYCARGTSYCTGGVCDIDYWGQGTLVTVSS
VL: B6 VL with I28S, T31R, A34N, G50S, S53N, R93S, L94I, F96L, Q100P, E105D
B8: MAdCAM Antibody Table 2 Clone 46 (antibody, human IgG1, V domains shown)
VH: EVQLLESGGGLVQPGGSLRLSCAASGFSFSSYTMNWVRQAPGKGLEWVSFITSSSRTIYYADSVKGRFTISRDNSKNTLYLQMNSLRAEDTAVYYCARDRRGDYGDSWYFDLWGRGTLVTVSS
VL: EIVMTQSPATLSVSPGERATLSCRASQSVRNYLAWYQQKPGQAPRLLIYGASTRATGIPARFSGSGSGTEFTLTISSLQSEDFAVYYCQQYGSSPLTFGGGTKVEIK
B9: MAdCAM Antibody Table 2 Clone 28 (antibody, human IgG1, V domains shown)
VH: EVQLLESGGGLVQPGGSLRLSCAASGFTFSSYAMSWVRQAPGKGLEWVSYISSSSTYTNYADSVKGRFTISRDNSKNTLYLQMNSLRAEDTAVYYCARANSSSWYDWYFDLWGQGTLVTVSS
VL: not shown
B10: MAdCAM Antibody Table 2 Clone 29 (antibody, human IgG1, V domains shown)
VH: B9 VH with A33Q
VL: not shown
B11: MAdCAM Antibody Table 1 Clone 7 (scFv)
scFv: QVQLVQSGAEVKKPGASVKVSCKASGYTFTGYHIHWVRQAPGQGLEWMGIINPSGGSTIYAQKFQGRVTMTRDTSTSTVYMELSSLRSEDTAVYYCAKDWSSWYLGPFDYWGQGTLVTVSSGGGGSGGGGSGGGGSGGGGSDIQMTQSPSSLSASVGDRVTITCRASQNISSSLNWYQQKPGKAPKLLIYAASSLQSGVPSRFSGSGSGTDFTLTISSLQPEDFATYYCQQSYTTPYTFGQGTKVEIK
B12: MAdCAM Antibody Table 1 Clone 5 (scFv)
scFv: EVQLLESGGGLVQPGGSLRLSCAASGFTFSSYWMHWVRQAPGKGLEWVSSISPGGSNIDYADSVKGRFTISRDNSKNTLYLQMNSLRAEDTAVYYCAREVQLSHYDYWGQGTLVTVSSGGGGSGGGGSGGGGSGGGGSDIQMTQSPSSLSASVGDRVTITCRASQGISNSLAWYQQKPGKAPKLLIYGASSLQSGVPSRFSGSGSGTDFTLTISSLQPEDFATYYCQQANSFPFTFGQGTKVEIK
B13: MAdCAM Antibody Table 1 Clone 11 (scFv)
scFv: QVQLVQSGAEVKKPGASVKVSCKASGYTFTTYYMHWVRQAPGQGLEWMGGFDPEDGETIYAQKFQGRVTMTRDTSTSTVYMELSSLRSEDTAVYYCARHAVAGAVGAGYYYYGMDVWGQGTMVTVSSGGGGSGGGGSGGGGSGGGGSDIQMTQSPSSLSASVGDRVTITCRASESISNWLAWYQQKPGKAPKLLIYAASTLQSGVPSRFSGSGSGTDFTLTISSLQPEDFATYYCQQSYSVPFTFGPGTKVDIK
B14: MAdCAM Antibody Table 1 Clone 4 (scFv)
scFv: QVQLVQSGAEVKKPGASVKVSCKASGGTFSSYAISWVRQAPGQGLEWMGSINPSGDTTSYAQKFQGRVTMTRDTSTSTVYMELSSLRSEDTAVYYCAKDKAQWLVGYFDYWGQGTLVTVSSGGGGSGGGGSGGGGSGGGGSDIQMTQSPSSLSASVGDRVTITCQASQDISNSLNWYQQKPGKAPKLLIYAASSLQSGVPSRFSGSGSGTDFTLTISSLQPEDFATYYCQQSYSSVITFGQGTKVEIK
B15: MAdCAM Antibody Table 1 Clone 2 (scFv)
scFv: QVQLVQSGAEVKKPGASVKVSCKASGYPFIGYYLHWVRQAPGQGLEWMGIINPSGGSTSYAQKFQGRVTMTRDTSTSTVYMELSSLRSEDTAVYYCAREGRLSYGMDAWGQGTLVTVSSGGGGSGGGGSGGGGSGGGGSDIQMTQSPSSLSASVGDRVTITCRASQSISSYLAWYQQKPGKAPKLLIYGASTLESGVPSRFSGSGSGTDFTLTISSLQPEDFATYYCQQTWGPPFTFGQGTKLEIK
B16: MAdCAM Antibody Table 1 Clone 3 (scFv)
scFv: B15 scFv with Y32Q

These binders were tested against T1, recombinant mouse MAdCAM-1 (assay: Octet).

binding result | Binder
no binding | B1
no binding | B2
no binding | B3
no binding | B4
no binding | B5
no binding | B6
no binding | B7
no binding | B8
no binding | B9
no binding | B10

Each binder was assayed against T2, human MAdCAM expressed on cells (assay: cell binding).

binding result | Binder
binds | B11
binds | B12
binds | B13
binds | B14
binds | B15
binds | B16

Each binder was assayed against T3, mouse MAdCAM expressed on cells (assay: cell binding).

binding result | Binder
binds | B11
binds | B12
no binding | B13
binds | B14
binds | B15
binds | B16

Molecular target: T2, human MAdCAM expressed on cells
Assay: cell binding
Remark: another data set of the same source

binding result | Binder
binds | B1
binds | B2
binds | B3
binds | B5
binds | B6
binds | B7
binds | B8
binds | B10

Molecular target: T3, mouse MAdCAM expressed on cells
Assay: cell binding
Remark: another data set of the same source

binding result | Binder
no binding | B1
no binding | B2
no binding | B3
no binding | B4
no binding | B5
no binding | B6
no binding | B7
no binding | B8
no binding | B9
no binding | B10
